Laboratory results published in US20040224363A1.

Assays:
[1] = biological target: putative IBC-1 receptor on G361 melanoma cells, moderately high affinity binding site; assay: Scatchard analysis of AP-IBC-1 binding to G361 melanoma cells (bound AP activity)
[2] = biological target: putative IBC-1 receptor on G361 melanoma cells, much lower affinity binding site; assay: as above

## alkaline phosphatase-IBC-1 (AP-IBC-1) fusion protein (from UniProt P81605 20-110) (ligand)
[1]
  Kd: 37.5 nM
  binding sites/cell (binding sites/cell): 17000
[2]
  Kd: 360 nM
  binding sites/cell (binding sites/cell): 350000
